Test results taken from patent US6960658B1, “Maspin transcriptional regulatory sequences and uses thereof” (Dana-Farber Cancer Institute, Inc., priority 1996, dated 2005).

Key:
[1] = test system: maspin HRE element (pBLAp1/HRE reporter) in CF3 and LNCaP cells; test: CAT assay of pBLAp1/HRE construct with or without androgen (R1881) treatment; format: cell-based, human; settings: 50 nM R1881 vs vehicle added after transfection
Protocol: For construction of pBLAp1/HRE, pairs of OL8 and OL9 oligos were annealed as described above. The annealed product was phosphorylated by T4 polynucleotide kinase, and ligated to the BamHI site of pBLAp1 (pBLCAT2 containing three copies of Ap1) to generate pBLAp1/HRE (FIG. 12).
Cells were plated at 1 ×106/p100 and grown to about 75% confluence. SNA was transfected by the method of modified DEAE-Dextran (Promega, Inc., Madison, Wis.). The amounts of DNAs used were: 10 μg reporter plasmid, except for PCMVCAT in which only 2 μg of DNA was used. 1 μg of pCMVβgal was used as an internal control for transfection efficiency. For the androgen treatment, 50 nM methyltrienolone.(R1881, from Du Pont-New England Nuclear, Inc., Boston, Mass.) or vehicle was added to the cultures after transfection. […] The β-galactosidase activity in the extracts was calculated as described by Swisshelm et al. (Cell Growth Differ. 5:133, 1994). Twenty units of extracts (calculated by β-galactosidase activity) were used for each CAT assay except for transfection with pCMVCAT positive control in which only 10 units of extracts were used because of high activity. […] Quantitation of acetylated […] and nonacetylated chloramphenicol was performed by cutting out the appropriate regions of the silica gel TLC plate and counting in BioFluor (DuPont, Wilmington, Del.). […]

[2] = test system: tumor cells; settings: Sager et al. 1995; cited from earlier work
[3] = test system: tumor cells; settings: expressed in tumor transfectants or added as recombinant maspin; Sheng et al. 1994; cited from earlier work

Molecule	effect of R1881 treatment on HRE-mediated inhibition of promoter (CAT) activity [1]	mobility of tumor cells [2]	invasion in a Boyden chamber assay [3]
C[C@]1(O)CC[C@H]2[C@@H]3CCC4=CC(=O)CCC4=C3C=C[C@@]21C [R1881, methyltrienolone]	Little difference in inhibition		
Maspin: a serpin expressed in normal human mammary epithelial cells (protein, UniProt P36952 1-375, looked up) Serpin B5: MDALQLANSAFAVDLFKQLCEKEPLGNVLFSPICLSTSLSLAQVGAKGDTANEIGQVLHFENVKDVPFGFQTVTSDVNKLSSFYSLKLIKRLYVDKSLNLSTEFISSTKRPYAKELETVDFKDKLEETKGQINNSIKDLTDGHFENILADNSVNDQTKILVVNAAYFVGKWMKKFSESETKECPFRVNKTDTKPVQMMNMEATFCMGNIDSINCKIIELPFQNKHLSMFILLPKDVEDESTGLEKIEKQLNSESLSQWTNPSTMANAKVKLSIPKFKVEKMIDPKACLENLGLKHIFSEDTSDFSGMSETKGVALSNVIHKVCLEITEDGGDSIEVPGARILQHKDELNADHPFIYIIRHNKTRNIIFFGKFCSP		inhibit mobility of tumor cells	inhibits invasion
